Measurements as given in PMC9482650, “Quantitative fragmentomics allow affinity mapping of interactomes” (Nature Communications, 2022).

T1: PCLO, Q9Y6V0
T1 sequence (Q9Y6V0 4491-4600, limits assumed, looked up): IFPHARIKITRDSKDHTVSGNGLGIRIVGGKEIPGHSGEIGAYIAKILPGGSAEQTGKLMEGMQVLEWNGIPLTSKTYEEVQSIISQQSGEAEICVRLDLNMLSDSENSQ

T2: DFNB31_2, Q9P202
T2 sequence (Q9P202 274-371, limits assumed, looked up): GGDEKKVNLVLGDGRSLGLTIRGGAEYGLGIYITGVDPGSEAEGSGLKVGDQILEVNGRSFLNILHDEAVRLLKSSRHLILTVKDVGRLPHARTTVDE

T3: NHERF3_1, Q5T2W1
T3 sequence (Q5T2W1 4-100, limits assumed, looked up): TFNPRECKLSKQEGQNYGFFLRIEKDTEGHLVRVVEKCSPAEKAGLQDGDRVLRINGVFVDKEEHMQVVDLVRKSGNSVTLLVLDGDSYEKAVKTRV

T4: TJP3_3, O95049
T4 sequence (O95049 375-456, limits assumed, looked up): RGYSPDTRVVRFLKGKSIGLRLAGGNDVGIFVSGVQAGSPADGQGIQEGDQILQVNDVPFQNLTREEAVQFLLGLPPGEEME

T5: DLG3_3, Q92796
T5 sequence (Q92796 374-475, limits assumed, looked up): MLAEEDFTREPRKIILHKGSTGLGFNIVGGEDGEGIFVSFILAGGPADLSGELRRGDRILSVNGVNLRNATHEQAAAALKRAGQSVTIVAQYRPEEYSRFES

T6: TIAM2, Q8IVF5
T6 sequence (Q8IVF5 885-986, limits assumed, looked up): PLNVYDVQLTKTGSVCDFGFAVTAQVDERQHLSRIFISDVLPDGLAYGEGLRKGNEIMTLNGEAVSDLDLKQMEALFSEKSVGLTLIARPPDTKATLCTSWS

T7: SHANK1, Q9Y566
T7 sequence (Q9Y566 658-767, limits assumed, looked up): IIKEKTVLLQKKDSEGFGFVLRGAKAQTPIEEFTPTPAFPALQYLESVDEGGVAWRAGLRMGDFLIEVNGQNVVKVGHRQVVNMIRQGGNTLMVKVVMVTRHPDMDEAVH

T8: MPP2, Q14168
T8 sequence (Q14168 180-250, limits assumed, looked up): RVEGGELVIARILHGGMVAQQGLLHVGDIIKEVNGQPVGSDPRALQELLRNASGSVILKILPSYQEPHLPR

T9: LNX2_2, Q8N448
T9 sequence (Q8N448 334-432, limits assumed, looked up): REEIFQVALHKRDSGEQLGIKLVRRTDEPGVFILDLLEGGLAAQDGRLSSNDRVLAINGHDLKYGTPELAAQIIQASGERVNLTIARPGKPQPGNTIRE

T10: GRIP1_5, Q9Y3R0
T10 sequence (Q9Y3R0 568-668, limits assumed, looked up): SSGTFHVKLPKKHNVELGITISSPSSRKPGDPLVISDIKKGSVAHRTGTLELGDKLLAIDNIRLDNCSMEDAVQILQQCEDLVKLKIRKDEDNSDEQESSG

T11: NHERF3_3, Q5T2W1
T11 sequence (Q5T2W1 238-333, limits assumed, looked up): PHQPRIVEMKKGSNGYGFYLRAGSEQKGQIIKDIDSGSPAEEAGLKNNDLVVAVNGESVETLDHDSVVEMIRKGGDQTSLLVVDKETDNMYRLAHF


Tests used:
Test in all cases: holdup assay
Design in all cases: key: below the threshold = too weak to quantify, mostly under pKd 3.1 to 4
Conditions in all cases: plain residues with an end cap or a label only (N-terminal biotin on a linker: ado-ado)
PCLO, Q9Y6V0 = target: T1, PCLO, Q9Y6V0
DFNB31_2, Q9P202 = target: T2, DFNB31_2, Q9P202
TJP1_3, Q07157 = target: TJP1_3, Q07157
GORASP1, Q9BQQ3 = target: GORASP1, Q9BQQ3
DLG4_1, P78352 = target: DLG4_1, P78352
NHERF3_1, Q5T2W1 = target: T3, NHERF3_1, Q5T2W1
TJP3_3, O95049 = target: T4, TJP3_3, O95049
Inadl_8, Q8NI35 = target: Inadl_8, Q8NI35
DLG3_3, Q92796 = target: T5, DLG3_3, Q92796
FRMPD2_2, Q68DX3 = target: FRMPD2_2, Q68DX3
Inadl_6, Q8NI35 = target: Inadl_6, Q8NI35
MAGI2_6, Q86UL8 = target: MAGI2_6, Q86UL8
TIAM2, Q8IVF5 = target: T6, TIAM2, Q8IVF5
DLG1_3, Q12959 = target: DLG1_3, Q12959
PICK1, Q9NRD5 = target: PICK1, Q9NRD5
IL16_1, Q14005 = target: IL16_1, Q14005
PTPN3, P26045 = target: PTPN3, P26045
GRID2IP_1, A4D2P6 = target: GRID2IP_1, A4D2P6
NOS1, P29475 = target: NOS1, P29475
MAGI2_2, Q86UL8 = target: MAGI2_2, Q86UL8
SHANK1, Q9Y566 = target: T7, SHANK1, Q9Y566
DLG4_3, P78352 = target: DLG4_3, P78352
MPP2, Q14168 = target: T8, MPP2, Q14168
LNX2_2, Q8N448 = target: T9, LNX2_2, Q8N448
GRIP1_5, Q9Y3R0 = target: T10, GRIP1_5, Q9Y3R0
NHERF3_3, Q5T2W1 = target: T11, NHERF3_3, Q5T2W1
NHERF4_1, Q86UT5-2 = target: NHERF4_1, Q86UT5-2
Chain of NHERF4_1, Q86UT5-2 (Q86UT5 other isoform, or with tags, fused parts or gaps): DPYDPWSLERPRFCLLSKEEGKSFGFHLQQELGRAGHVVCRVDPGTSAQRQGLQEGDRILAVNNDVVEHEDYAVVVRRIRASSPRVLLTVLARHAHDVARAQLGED

Chain of PICK1, Q9NRD5 (Q9NRD5 17-115): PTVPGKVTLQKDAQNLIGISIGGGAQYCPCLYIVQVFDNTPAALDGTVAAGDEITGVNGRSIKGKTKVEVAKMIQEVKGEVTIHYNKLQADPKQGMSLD
Chain of PTPN3, P26045 (P26045 505-587): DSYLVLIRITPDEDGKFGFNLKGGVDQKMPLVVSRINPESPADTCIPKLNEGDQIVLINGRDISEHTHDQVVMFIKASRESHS
Chain of Inadl_8, Q8NI35 (Q8NI35 1425-1530): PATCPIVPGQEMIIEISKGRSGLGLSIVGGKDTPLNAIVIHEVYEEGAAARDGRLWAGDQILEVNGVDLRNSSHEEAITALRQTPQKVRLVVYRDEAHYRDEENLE
Chain of NOS1, P29475 (P29475 9-101): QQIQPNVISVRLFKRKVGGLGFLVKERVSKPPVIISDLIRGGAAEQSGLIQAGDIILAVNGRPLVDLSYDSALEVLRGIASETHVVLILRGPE
Chain of GRID2IP_1, A4D2P6 (A4D2P6 1-87): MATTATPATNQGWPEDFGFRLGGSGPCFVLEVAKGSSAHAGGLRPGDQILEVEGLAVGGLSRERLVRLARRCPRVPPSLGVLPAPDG
Chain of DLG4_3, P78352 (P78352 306-403): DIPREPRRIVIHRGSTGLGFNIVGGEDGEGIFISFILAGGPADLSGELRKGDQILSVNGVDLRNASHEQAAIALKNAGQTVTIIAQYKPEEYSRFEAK
Chain of DLG1_3, Q12959 (Q12959 457-571): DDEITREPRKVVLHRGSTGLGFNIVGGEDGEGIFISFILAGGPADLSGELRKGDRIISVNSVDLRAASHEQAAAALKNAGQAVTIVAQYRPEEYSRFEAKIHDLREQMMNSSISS
Chain of MAGI2_6, Q86UL8 (Q86UL8 1141-1229): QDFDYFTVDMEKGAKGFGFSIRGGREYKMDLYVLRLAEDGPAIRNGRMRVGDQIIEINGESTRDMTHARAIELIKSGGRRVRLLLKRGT
Chain of MAGI2_2, Q86UL8 (Q86UL8 410-522): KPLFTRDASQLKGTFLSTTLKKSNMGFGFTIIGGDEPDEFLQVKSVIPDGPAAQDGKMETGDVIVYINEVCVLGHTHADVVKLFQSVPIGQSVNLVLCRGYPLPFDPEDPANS
Chain of DLG4_1, P78352 (P78352 62-152): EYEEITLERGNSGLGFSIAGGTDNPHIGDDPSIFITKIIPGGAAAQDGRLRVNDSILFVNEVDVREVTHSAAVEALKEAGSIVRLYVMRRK
Chain of IL16_1, Q14005 (Q14005 210-306): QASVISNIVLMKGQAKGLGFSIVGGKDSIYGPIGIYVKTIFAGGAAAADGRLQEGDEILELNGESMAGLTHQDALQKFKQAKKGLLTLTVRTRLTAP
Chain of FRMPD2_2, Q68DX3 (Q68DX3 944-1038): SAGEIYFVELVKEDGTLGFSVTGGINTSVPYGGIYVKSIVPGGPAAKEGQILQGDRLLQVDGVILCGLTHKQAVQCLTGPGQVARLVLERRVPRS
Chain of Inadl_6, Q8NI35 (Q8NI35 1058-1167): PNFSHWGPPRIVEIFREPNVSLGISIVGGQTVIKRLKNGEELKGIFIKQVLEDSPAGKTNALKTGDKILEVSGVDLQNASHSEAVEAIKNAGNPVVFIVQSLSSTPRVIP
Chain of GORASP1, Q9BQQ3 (Q9BQQ3 1-208): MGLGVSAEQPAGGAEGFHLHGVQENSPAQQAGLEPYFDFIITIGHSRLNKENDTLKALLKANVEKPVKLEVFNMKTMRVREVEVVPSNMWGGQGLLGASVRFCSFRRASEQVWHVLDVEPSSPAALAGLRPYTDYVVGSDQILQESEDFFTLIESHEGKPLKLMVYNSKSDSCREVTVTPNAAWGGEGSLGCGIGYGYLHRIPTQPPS
Chain of TJP1_3, Q07157 (Q07157 416-512): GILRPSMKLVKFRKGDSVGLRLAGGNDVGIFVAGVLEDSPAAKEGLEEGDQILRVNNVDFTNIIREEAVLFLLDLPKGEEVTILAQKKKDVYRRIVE

| Binder | pKd (PCLO, Q9Y6V0) | pKd (DFNB31_2, Q9P202) | pKd (TJP1_3, Q07157) | pKd (GORASP1, Q9BQQ3) | pKd (DLG4_1, P78352) | pKd (NHERF3_1, Q5T2W1) | pKd (TJP3_3, O95049) | pKd (Inadl_8, Q8NI35) | pKd (DLG3_3, Q92796) | pKd (FRMPD2_2, Q68DX3) | pKd (Inadl_6, Q8NI35) | pKd (MAGI2_6, Q86UL8) | pKd (TIAM2, Q8IVF5) | pKd (DLG1_3, Q12959) | pKd (PICK1, Q9NRD5) | pKd (IL16_1, Q14005) | pKd (PTPN3, P26045) | pKd (GRID2IP_1, A4D2P6) | pKd (NOS1, P29475) | pKd (MAGI2_2, Q86UL8) | other results |
| --- | --- | --- | --- | --- | --- | --- | --- | --- | --- | --- | --- | --- | --- | --- | --- | --- | --- | --- | --- | --- | --- |
| VKPQVSESKL [ACOT8, O14734] | below the threshold | 3.62 | below the threshold | below the threshold | below the threshold | 5.33 | below the threshold | below the threshold | below the threshold | below the threshold | below the threshold | below the threshold | 4.03 | below the threshold | 3.84 | below the threshold | 4.63 | below the threshold | below the threshold | 3.64 | pKd (SHANK1, Q9Y566): 4.01; pKd (DLG4_3, P78352): below the threshold; pKd (MPP2, Q14168): below the threshold; pKd (LNX2_2, Q8N448): below the threshold; pKd (GRIP1_5, Q9Y3R0): below the threshold; pKd (NHERF3_3, Q5T2W1): below the threshold; pKd (NHERF4_1, Q86UT5-2): 3.78 |
| EALLQMESVA [CAVIN3, Q969G5] | below the threshold | below the threshold | below the threshold | below the threshold | below the threshold | below the threshold | below the threshold | below the threshold | below the threshold | below the threshold | below the threshold | below the threshold | 4.12 | below the threshold | below the threshold | below the threshold | below the threshold | below the threshold | below the threshold | below the threshold | pKd (SHANK1, Q9Y566): below the threshold; pKd (DLG4_3, P78352): below the threshold; pKd (MPP2, Q14168): below the threshold; pKd (LNX2_2, Q8N448): below the threshold; pKd (GRIP1_5, Q9Y3R0): below the threshold; pKd (NHERF3_3, Q5T2W1): below the threshold; pKd (NHERF4_1, Q86UT5-2): 3.59 |
| KKAPTNEFYA [SDC4, P31431] | below the threshold | below the threshold | below the threshold | below the threshold | below the threshold | 3.79 | below the threshold | below the threshold | below the threshold | below the threshold | below the threshold | below the threshold | 3.94 | below the threshold | below the threshold | below the threshold | 4.02 | below the threshold | below the threshold | below the threshold | pKd (SHANK1, Q9Y566): below the threshold; pKd (DLG4_3, P78352): below the threshold; pKd (MPP2, Q14168): below the threshold; pKd (LNX2_2, Q8N448): below the threshold; pKd (GRIP1_5, Q9Y3R0): below the threshold; pKd (NHERF3_3, Q5T2W1): below the threshold; pKd (NHERF4_1, Q86UT5-2): below the threshold |

The next lines start with results.

| pKd (PCLO, Q9Y6V0) | pKd (DFNB31_2, Q9P202) | pKd (TJP1_3, Q07157) | pKd (GORASP1, Q9BQQ3) | pKd (DLG4_1, P78352) | pKd (NHERF3_1, Q5T2W1) | pKd (TJP3_3, O95049) | pKd (Inadl_8, Q8NI35) | pKd (DLG3_3, Q92796) | pKd (FRMPD2_2, Q68DX3) | pKd (Inadl_6, Q8NI35) | pKd (MAGI2_6, Q86UL8) | pKd (TIAM2, Q8IVF5) | pKd (DLG1_3, Q12959) | pKd (PICK1, Q9NRD5) | pKd (IL16_1, Q14005) | pKd (PTPN3, P26045) | pKd (GRID2IP_1, A4D2P6) | pKd (NOS1, P29475) | pKd (MAGI2_2, Q86UL8) | Binder | other results |
| --- | --- | --- | --- | --- | --- | --- | --- | --- | --- | --- | --- | --- | --- | --- | --- | --- | --- | --- | --- | --- | --- |
| below the threshold | below the threshold | 3.63 | 4.14 | 3.51 | 4.35 | 4.31 | 4.27 | below the threshold | below the threshold | below the threshold | 3.72 | 3.94 | below the threshold | 4.14 | 3.8 | below the threshold | below the threshold | below the threshold | 3.67 | FNSYSLTGYV [CLDN2, P57739] | pKd (SHANK1, Q9Y566): below the threshold; pKd (DLG4_3, P78352): below the threshold; pKd (MPP2, Q14168): below the threshold; pKd (LNX2_2, Q8N448): 4.98; pKd (GRIP1_5, Q9Y3R0): below the threshold; pKd (NHERF3_3, Q5T2W1): below the threshold; pKd (NHERF4_1, Q86UT5-2): 3.9 |
| below the threshold | below the threshold | below the threshold | 3.57 | 3.72 | 4.76 | 3.49 | below the threshold | below the threshold | 3.52 | 3.81 | 4.26 | below the threshold | 3.54 | 4.2 | below the threshold | 4.45 | below the threshold | 3.57 | 3.55 | PRAEAEDSFL [PDGFRB, P09619] | pKd (SHANK1, Q9Y566): 3.51; pKd (DLG4_3, P78352): below the threshold; pKd (MPP2, Q14168): below the threshold; pKd (LNX2_2, Q8N448): 3.54; pKd (GRIP1_5, Q9Y3R0): 3.53; pKd (NHERF3_3, Q5T2W1): below the threshold; pKd (NHERF4_1, Q86UT5-2): 3.89 |
